Measured values published in patent publication US20230416365A1 (Hoffmann-La Roche, published 2023).
Blank lines part the entries; values can stand above or below the binder they belong to.

Tests used:
[1] = target: T1, Hu N(A2-B2)A-avi-His (human, biotinylated at the avi tag (Example 2.2)); assay: SPR, ProteOn XPR36, antigen on NLC chip, bispecific as analyte
T1 construct: also called hu N(A2-B2)A-avi-His B; CEACAM5-based antigen
T1 chain: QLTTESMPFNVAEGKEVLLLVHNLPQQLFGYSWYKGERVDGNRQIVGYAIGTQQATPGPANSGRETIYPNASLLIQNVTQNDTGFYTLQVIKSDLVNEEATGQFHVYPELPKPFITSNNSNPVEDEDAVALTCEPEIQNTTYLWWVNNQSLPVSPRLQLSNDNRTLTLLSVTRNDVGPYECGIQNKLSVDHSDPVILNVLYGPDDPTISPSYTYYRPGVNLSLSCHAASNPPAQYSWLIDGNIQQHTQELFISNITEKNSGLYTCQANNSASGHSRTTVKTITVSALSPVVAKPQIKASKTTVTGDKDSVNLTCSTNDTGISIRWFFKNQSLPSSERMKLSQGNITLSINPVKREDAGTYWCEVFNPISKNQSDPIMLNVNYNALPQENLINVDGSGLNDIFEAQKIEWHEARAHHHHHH

[2] = target: T2, human BCMA on IM-9 cells (human, UniProt Q02223 1-184); assay: flow cytometry on IM-9 cells
T2 construct: also called B-cell maturation antigen
T2 sequence: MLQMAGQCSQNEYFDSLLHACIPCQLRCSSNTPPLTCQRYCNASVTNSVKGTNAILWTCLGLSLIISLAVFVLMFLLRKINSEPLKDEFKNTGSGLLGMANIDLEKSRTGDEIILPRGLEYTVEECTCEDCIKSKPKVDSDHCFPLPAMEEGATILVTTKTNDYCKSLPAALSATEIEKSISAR

[3] = target: T3, human CD28 on CHO cells (parental cell line CHO-k1 ATCC #CCL-61, modified to stably overexpress human CD28) (human, UniProt P10747 19-220); assay: flow cytometry on CHO-hCD28 cells
T3 construct: also called hu CD28; CHO-hCD28

Kd [1]: 0.29 nM
B1: CEA-CD28(SA) 1+1 format (Molecule M) (bispecific antibody, human IgG1, kappa, L234A L235A)
heavy 1: not shown
light 1: not shown
heavy 2: QAVLTQPASLSASPGASASLTCTLRRGINVGAYSIYWYQQKPGSPPQYLLRYKSDSDKQQGSGVSSRFSASKDASANAGILLISGLQSEDEADYYCMIWHSGASAVFGGGTKLTVLSSASTKGPSVFPLAPSSKSTSGGTAALGCLVKDYFPEPVTVSWNSGALTSGVHTFPAVLQSSGLYSLSSVVTVPSSSLGTQTYICNVNHKPSNTKVDKKVEPKSCDKTHTCPPCPAPEAAGGPSVFLFPPKPKDTLMISRTPEVTCVVVDVSHEDPEVKFNWYVDGVEVHNAKTKPREEQYNSTYRVVSVLTVLHQDWLNGKEYKCKVSNKALGAPIEKTISKAKGQPREPQVCTLPPSRDELTKNQVSLSCAVKGFYPSDIAVEWESNGQPENNYKTTPPVLDSDGSFFLVSKLTVDKSRWQQGNVFSCSVMHEALHNHYTQKSLSLSP
light 2: EVQLVESGGGLVQPGRSLRLSCAASGFTVSSYWMHWVRQAPGKGLEWVGFIRNKANGGTTEYAASVKGRFTISRDDSKNTLYLQMNSLRAEDTAVYYCARDRGLRFYFDYWGQGTTVTVSSASVAAPSVFIFPPSDEQLKSGTASVVCLLNNFYPREAKVQWKVDNALQSGNSQESVTEQDSKDSTYSLSSTLTLSKADYEKHKVYACEVTHQGLSSPVTKSFNRGEC
notes: huIgG1 PG-LALA CrossFab, knob-into-hole; also called P1AE3127; anti-CEA (Medi-565) / anti-CD28 (TGN1412)

EC50 [2]: 3.96 nM
EC50 [3]: 9.9 nM
B2: anti-BCMA-CD28 (SA_Variant 15) 1+1 format (Molecule 16D) (bispecific antibody, human IgG1, kappa, L234A L235A)
heavy 1: not shown
light 1: QVQLVQSGAEVKKPGASVKVSCKASGYTFTSYYIHWVRQAPGQGLEWIGSIYPGNVQTNYNEKFKDRATLTVDTSISTAYMELSRLRSDDTAVYFCTRSHYGLDWNFDVWGQGTTVTVSSASVAAPSVFIFPPSDEQLKSGTASVVCLLNNFYPREAKVQWKVDNALQSGNSQESVTEQDSKDSTYSLSSTLTLSKADYEKHKVYACEVTHQGLSSPVTKSFNRGEC
heavy 2: EVQLLESGGGLVQPGGSLRLSCAASGFTFSSYAMNWVRQAPGKGLEWVSAITASGGSTYYADSVKGRFTISRDNSKNTLYLQMNSLRAEDTAVYYCARYWPMSLWGQGTLVTVSSASTKGPSVFPLAPSSKSTSGGTAALGCLVEDYFPEPVTVSWNSGALTSGVHTFPAVLQSSGLYSLSSVVTVPSSSLGTQTYICNVNHKPSNTKVDEKVEPKSCDKTHTCPPCPAPEAAGGPSVFLFPPKPKDTLMISRTPEVTCVVVDVSHEDPEVKFNWYVDGVEVHNAKTKPREEQYNSTYRVVSVLTVLHQDWLNGKEYKCKVSNKALGAPIEKTISKAKGQPREPQVCTLPPSRDELTKNQVSLSCAVKGFYPSDIAVEWESNGQPENNYKTTPPVLDSDGSFFLVSKLTVDKSRWQQGNVFSCSVMHEALHNHYTQKSLSLSP
light 2: EIVLTQSPGTLSLSPGERATLSCRASQSVSAYYLAWYQQKPGQAPRLLMYDASIRATGIPDRFSGSGSGTDFTLTISRLEPEDFAVYYCQQYERWPLTFGQGTKVEIKRTVAAPSVFIFPPSDRKLKSGTASVVCLLNNFYPREAKVQWKVDNALQSGNSQESVTEQDSKDSTYSLSSTLTLSKADYEKHKVYACEVTHQGLSSPVTKSFNRGEC
notes: huIgG1 PG-LALA CrossFab; also called P1AE9053
